Experimental data reported in patent publication US20250034267A1 (published 2025).

T1: CD25 endogenously expressed on SUDHL-1 human lymphoma cell line and induced human Treg (iTreg) (human, UniProt P01589 22-272)
T1 sequence (looked up): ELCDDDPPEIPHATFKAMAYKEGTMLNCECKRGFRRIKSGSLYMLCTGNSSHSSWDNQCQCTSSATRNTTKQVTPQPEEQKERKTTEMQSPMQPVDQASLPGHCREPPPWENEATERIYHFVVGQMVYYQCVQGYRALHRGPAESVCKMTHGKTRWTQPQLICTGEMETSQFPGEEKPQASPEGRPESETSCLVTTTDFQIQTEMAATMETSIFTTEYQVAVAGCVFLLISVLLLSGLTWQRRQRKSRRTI

T2: human IL2R on HEK blue human IL2R overexpressing cell line (human, UniProt P01589 22-272; P14784 27-551; P31785 23-369)
T2 sequence (looked up) 1: T1 sequence (looked up)
T2 sequence (looked up) 2: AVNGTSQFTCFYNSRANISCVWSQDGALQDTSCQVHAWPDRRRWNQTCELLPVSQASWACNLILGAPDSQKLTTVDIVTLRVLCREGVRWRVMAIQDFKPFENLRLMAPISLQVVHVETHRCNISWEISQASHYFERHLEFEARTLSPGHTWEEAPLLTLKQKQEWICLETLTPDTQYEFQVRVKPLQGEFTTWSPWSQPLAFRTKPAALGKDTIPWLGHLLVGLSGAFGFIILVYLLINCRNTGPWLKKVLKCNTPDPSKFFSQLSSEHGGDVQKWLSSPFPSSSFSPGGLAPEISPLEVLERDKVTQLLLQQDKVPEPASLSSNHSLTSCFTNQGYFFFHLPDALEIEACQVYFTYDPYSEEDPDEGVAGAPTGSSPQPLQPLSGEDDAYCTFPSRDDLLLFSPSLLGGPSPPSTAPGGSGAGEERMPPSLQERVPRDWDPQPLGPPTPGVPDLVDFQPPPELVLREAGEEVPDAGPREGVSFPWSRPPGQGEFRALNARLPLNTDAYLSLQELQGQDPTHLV
T2 sequence (looked up) 3: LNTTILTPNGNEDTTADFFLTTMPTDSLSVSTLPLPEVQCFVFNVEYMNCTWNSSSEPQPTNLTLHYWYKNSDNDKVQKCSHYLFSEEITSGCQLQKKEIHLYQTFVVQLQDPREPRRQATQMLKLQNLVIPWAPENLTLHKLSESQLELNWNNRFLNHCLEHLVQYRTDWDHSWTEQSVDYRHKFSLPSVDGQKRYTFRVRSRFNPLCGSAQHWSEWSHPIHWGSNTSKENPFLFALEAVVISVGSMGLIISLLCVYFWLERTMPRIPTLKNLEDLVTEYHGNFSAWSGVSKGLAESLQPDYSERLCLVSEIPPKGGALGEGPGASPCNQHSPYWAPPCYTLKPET

T3: CD25 (as used on the Carterra LSA) (Homo sapiens (Human), UniProt P01589 22-240)
T3 sequence: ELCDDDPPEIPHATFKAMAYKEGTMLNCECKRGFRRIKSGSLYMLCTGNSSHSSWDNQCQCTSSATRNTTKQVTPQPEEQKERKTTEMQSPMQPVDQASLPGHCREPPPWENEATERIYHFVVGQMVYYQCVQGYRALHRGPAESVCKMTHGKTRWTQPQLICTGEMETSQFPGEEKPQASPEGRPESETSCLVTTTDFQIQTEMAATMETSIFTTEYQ

T4: cynomolgus CD25 (Sino Biologicals, 90265-C08H) (cynomolgus, UniProt H6WS54 22-240)
T4 construct: Bought recombinant protein coated on ELISA plates; also called cynos monkey CD25; immobilized cynomolgus CD25
T4 sequence: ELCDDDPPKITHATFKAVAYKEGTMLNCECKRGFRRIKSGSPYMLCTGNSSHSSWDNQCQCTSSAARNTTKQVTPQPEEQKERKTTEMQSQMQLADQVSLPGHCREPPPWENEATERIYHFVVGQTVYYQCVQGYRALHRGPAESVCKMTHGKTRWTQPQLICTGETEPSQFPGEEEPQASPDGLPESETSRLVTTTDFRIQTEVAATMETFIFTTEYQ

T5: human CD25 (Sino Biologicals, 10165-H08H) (human, UniProt P01589 22-213)
T5 construct: Bought recombinant protein coated on ELISA plates; also called immobilized human CD25; IL2RA
T5 sequence (looked up): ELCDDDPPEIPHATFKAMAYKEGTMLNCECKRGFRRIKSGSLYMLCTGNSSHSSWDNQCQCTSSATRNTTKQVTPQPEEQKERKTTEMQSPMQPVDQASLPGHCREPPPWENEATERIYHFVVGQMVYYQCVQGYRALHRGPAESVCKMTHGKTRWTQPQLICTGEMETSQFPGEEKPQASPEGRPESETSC

B1: IBIO-101-plant-afuc (SD-889825-PC-A; IBIO-101, c-105 plant Afucosylated) (antibody, human IgG1, kappa, V domains shown)
VH: QVQLVQSGAEVKKPGASLKISCKGSGYTFTDYAMHWVRQAPGQGLEWIGVISTYSGDAIYAQKFQGRATMTVDTSTSTAYLELSSLRSEDTAVYYCARGVTFDYWGQGTTVTVSS
VL: DIQMTQSPSSLSASVGDRVTITCRASQDISNYLEWYQQKPGKAPKLLVYNAKTLAEGVPSRFSGSGSGTDFTLTISSLQPEDFGTYYCQHHYDTPYTFGQGTKLEIKR
notes: Same antibody made in C105 deltaXT/FT N. benthamiana plants, glycans without fucose and xylose; also called RTX-003; hD11
B2: IBIO-101-plant-WT (SD-889825-PW-A; IBIO-101, wild-type plant) (antibody, human IgG1, kappa, V domains shown)
VH: B1 VH
VL: B1 VL
notes: Same antibody made in wild-type Nicotiana benthamiana plants; also called RTX-003; hD11
B3: IBIO-101-CHO-WT (SD-889825-CW-A; IBIO-101, wild-type CHO cells) (antibody, human IgG1, kappa, V domains shown)
VH: B1 VH
VL: B1 VL
notes: The signal peptide is marked only by bold print (lost here); also called RTX-003; hD11
B4: IBIO-101-CHO-afuc (SD-889825-CG-A; IBIO-101, CHO cells Afucosylated) (antibody, human IgG1, kappa, V domains shown)
VH: B1 VH
VL: B1 VL
notes: Same antibody made in CHO cells, afucosylated glycans; also called RTX-003; hD11

Legend:
[1] = biological target: T1, CD25 endogenously expressed on SUDHL-1 …; assay: cell-based or functional assay
[2] = biological target: T1, CD25 endogenously expressed on SUDHL-1 …; assay: cell-based or functional assay; remark: listed apart in the source
[3] = biological target: T1, CD25 endogenously expressed on SUDHL-1 …; assay: flow cytometry on SUDHL-1 cells; average of n>=6; SD 38.12
Experimental: SUDHL-1 and iTreg Cell Binding Assay.
(§1) The plates were centrifuged and then kept on ice for the remaining essay steps after aspiration of the supernatant. Following supernatant aspiration, the anti-CD25 or control antibodies in the assay buffer were added to the cells at increasing concentrations (0.64-10,000 ng/ml) for 20 minutes on ice. After incubation, the plates were centrifuged and the supernatant was aspirated, then the cells were washed once with the assay buffer followed by centrifugation and supernatant aspiration. […] After incubation, the plates were centrifuged and the supernatant was aspirated, then the cells were washed once with the assay buffer followed by centrifugation and supernatant aspiration. […] Cell binding was analyzed on a Miltenyi MACSQuant 16 flow cytometer. Flow cytometry data were analyzed with the FlowJo flow cytometry analysis software. For making graphs and calculation of the EC₅₀ values GraphPad Prism 9.3.0 was used.

[4] = biological target: T2, human IL2R on HEK blue human IL2R …; assay: cell-based or functional assay
[5] = biological target: T3, CD25 (as used on the Carterra LSA); assay: Carterra LSA binding kinetics; KD SD 1.27 nM
[6] = biological target: T3, CD25 (as used on the Carterra LSA); assay: Carterra LSA binding kinetics
[7] = biological target: T4, cynomolgus CD25 (Sino Biologicals, …); assay: ELISA, plate coated with cynomolgus CD25; average of n>=3; SD 9.8
Experimental: (§2) Values plotted are measured absorbance at 450 nm wavelength.
(§3) CD25 Binding ELISA. […] The next day, plates were washed three times with wash buffer [1X PBS with 0.1% Tween-20 (Teknova, P0207)] followed by the addition of blocking buffer [1X PBS, 1% BSA (Teknova, B0101)] for 1 hour at room temperature. After blocking, plates were washed three times with wash buffer followed by the addition of the anti-CD25 or control antibodies in wash buffer at increasing concentrations (0.0006-10 μg/mL) for 1 hour at room temperature. After incubation, plates were washed three times with wash buffer followed by the addition of goat anti-human IgG-HRP secondary antibody (Biorad, STAR126P) at 1:2500 dilution in wash buffer for 1 hour at room temperature. […] After TMB substrate incubation, ELISA stop solution (Thermo Fisher, SS04) was added to the plate at equal volume to the TMB substrate and the absorbance was read at 450 nm. The data was plotted using GraphPad Prism 9.3.0 software and the EC₅₀ values were calculated by the software.

[8] = biological target: T1, CD25 endogenously expressed on SUDHL-1 …; assay: flow cytometry on iTreg cells; average of n=3; SD 83.94
Experimental: as §1

[9] = biological target: T5, human CD25 (Sino Biologicals, …); assay: ELISA, plate coated with human CD25; average of n>=3; SD 3.2
Experimental: as §2, §3

[10] = biological target: T5, human CD25 (Sino Biologicals, …); assay: ELISA, plate coated with human CD25; average of n>=3; SD 3.3
Experimental: as §2, §3

[11] = biological target: T3, CD25 (as used on the Carterra LSA); assay: Carterra LSA binding kinetics; KD SD 0.69 nM
[12] = biological target: T1, CD25 endogenously expressed on SUDHL-1 …; assay: flow cytometry on SUDHL-1 cells; average of n>=6; SD 39.71
Experimental: SUDHL-1 and iTreg Cell Binding Assay.
as §1

[13] = biological target: T4, cynomolgus CD25 (Sino Biologicals, …); assay: ELISA, plate coated with cynomolgus CD25; average of n>=3; SD 8.8
Experimental: as §2, §3

[14] = biological target: T1, CD25 endogenously expressed on SUDHL-1 …; assay: flow cytometry on iTreg cells; average of n=3; SD 63.88
Experimental: as §1

[15] = biological target: T3, CD25 (as used on the Carterra LSA); assay: Carterra LSA binding kinetics; KD SD 0.37 nM
[16] = biological target: T4, cynomolgus CD25 (Sino Biologicals, …); assay: ELISA, plate coated with cynomolgus CD25; average of n>=3; SD 19.5
Experimental: as §2, §3

[17] = biological target: T1, CD25 endogenously expressed on SUDHL-1 …; assay: flow cytometry on iTreg cells; average of n=3; SD 44.59
Experimental: as §1

[18] = biological target: T5, human CD25 (Sino Biologicals, …); assay: ELISA, plate coated with human CD25; average of n>=3; SD 4.9
Experimental: as §2, §3

[19] = biological target: T1, CD25 endogenously expressed on SUDHL-1 …; assay: flow cytometry on SUDHL-1 cells; average of n>=6; SD 26.2
Experimental: SUDHL-1 and iTreg Cell Binding Assay.
as §1

[20] = biological target: T3, CD25 (as used on the Carterra LSA); assay: Carterra LSA binding kinetics; KD SD 1.03 nM
[21] = biological target: T4, cynomolgus CD25 (Sino Biologicals, …); assay: ELISA, plate coated with cynomolgus CD25; average of n>=3; SD 12.3
Experimental: as §2, §3

[22] = biological target: T5, human CD25 (Sino Biologicals, …); assay: ELISA, plate coated with human CD25; average of n>=3; SD 2.5
Experimental: as §2, §3

[23] = biological target: T1, CD25 endogenously expressed on SUDHL-1 …; assay: flow cytometry on SUDHL-1 cells; average of n>=6; SD 39.9
Experimental: SUDHL-1 and iTreg Cell Binding Assay.
as §1

[24] = biological target: T1, CD25 endogenously expressed on SUDHL-1 …; assay: flow cytometry on iTreg cells; average of n=3; SD 40.50
Experimental: as §1

Row | Binder | EC50, SUDHL-1/NFAT CD16 ADCC reporter assay [1] [µg/mL] | EC50, iTreg/NFAT CD16 ADCC reporter assay [2] [µg/mL] | EC50, IL-2 reporter HEK293 pSTAT5 assay (activation of STAT5 by IL2 in presence of the antibody) [4] [ng/ml] | koff [6] [s⁻¹] | kon [6] [M⁻¹ s⁻¹] | other results
1 | B1 | 0.0089 | 0.00714 | 0.17 | 0.00207 | 492000 | EC50 [3]: 0.123 µg/mL; Kd [5]: 4.27 nM; EC50 [7]: 0.0424 µg/mL; EC50 [8]: 0.218 µg/mL; EC50 [9]: 0.0174 µg/mL
2 | B2 | 0.0325 | 0.0303 | 0.21 | 0.0012 | 485000 | EC50 [10]: 0.016 µg/mL; Kd [11]: 4.2 nM; EC50 [12]: 0.126 µg/mL; EC50 [13]: 0.0439 µg/mL; EC50 [14]: 0.235 µg/mL
3 | B3 | 0.0845 | 0.0538 | 0.17 | 0.00192 | 471000 | Kd [15]: 4.1 nM; EC50 [16]: 0.0544 µg/mL; EC50 [17]: 0.223 µg/mL; EC50 [18]: 0.0199 µg/mL; EC50 [19]: 0.123 µg/mL
4 | B4 | 0.0072 | 0.00471 | 0.17 | 0.00119 | 499000 | Kd [20]: 3.9 nM; EC50 [21]: 0.0431 µg/mL; EC50 [22]: 0.0156 µg/mL; EC50 [23]: 0.126 µg/mL; EC50 [24]: 0.219 µg/mL
